Variants at the floor of the assay were thinned out.
B1: TPR 5TU (parent)
chain: GGAUCUUCUCGAUCUAACAAAAAAGACAAAUCUGCCACAAAGCUUGAGAGCAUCUUCGGAUGCAGAGGCGGCAGCCUUCGGUGGCGCGAUAGCGCCAACGUUCUCAACUAUGACACGCAAAACGCGUGCUCCGUUGAAUGGAGUUUAUCAUG

Variants of: B1
Assay: polymerase ribozyme fitness, log enrichment relative to wild type (log ratio); higher = more active; in vitro selection for triplet polymerase activity
How it was run: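 A single round of triplicate in vitro selection, including frozen incubation at −7 °C, was applied to PCR-built, transcribed mutant libraries of each subunit of a heterodimeric triplet polymerase ribozyme. Illumina sequencing of input and output libraries retained genotypes with ≥10 input reads and ≥1 read per output. Fitness is the base-2 logarithm of genotype enrichment divided by wild-type enrichment, from inverse-variance-weighted replicate averages.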

Row | Variant | polymerase ribozyme fitness (log ratio)
1 | U33C A41C | -3.48
2 | G34A A47U G50A C63U | -2.2
3 | C32G C87A A107G | ≤ -4.2
4 | A30U A49C G58A A119C G128U U134G | ≤ -4.2
5 | U33G G58C A120G G133C | -3.81
6 | U33C U56G C93U | ≤ -4.2
7 | U31C C57A G83U C118U G124U A142C | -2.24
8 | U31C C36G U56A G70C G94A C129G | -3
9 | G34C C87U | -3.33
10 | U33G A49C C75G G92A U101G C105A | -4.15
11 | U31C A41C A91C C95G U139A G143C | ≤ -4.2
12 | C32U G94U C116G | -3.95
13 | U31G C57A G136A G140A U146A | -3.1
14 | U31A A40G U44G G141C | -4.06
15 | U33A G50C U56A C76A G81C | ≤ -4.2
16 | C35A | -2.69
17 | U31A A49C C99G C108G | ≤ -4.2
18 | U31G | 0.749
19 | U31C | 0.947
20 | U31A | 0.37
21 | A30G A49C C93G | ≤ -4.2
22 | U31G C43G U53A G83U | ≤ -4.2
23 | U31G C38G U101G U139C U146G | -4.03
24 | A30U A40U C87G C103G G141A | -3.9

Row | Variant | polymerase ribozyme fitness (log ratio)
25 | U33G U56A C69U C87G U101C | ≤ -4.2
26 | A30U U77G G84U C129G G152C | ≤ -4.2
27 | A30U U55G C63U A110U G126U | -4.07
28 | A30G U33G U82C C103A U144A | ≤ -4.2
29 | G34A C35A G83C A106U G133U A137G G141U | ≤ -4.2
30 | C32U A49U C51U C75U U102C U146G | ≤ -4.2
31 | C32U U77G C103G A138U | ≤ -4.2
32 | U33G G124A U134G | ≤ -4.2
33 | U31G G83A A138G | ≤ -4.2
34 | G34A A60G G94A A147G A150C | ≤ -4.2
35 | U33A A60C G74A A137C A150U | ≤ -4.2
36 | C32G C87U | -3.63
37 | C32U U55A C63U C118A | -3.08
38 | C32U G46A C51G U53C G67C G86U U101G A138U | ≤ -4.2
39 | A30G A60U C85A C95A C96A C125U A150C | ≤ -4.2
40 | U33A G50A A64C G83C | ≤ -4.2
41 | A30U C51G A98U G136U | ≤ -4.2
42 | U31G C99U U145G | -0.861
43 | U33C G71C | ≤ -4.2
44 | U31C A52C C54U U139C G143U | ≤ -4.2
45 | A30U C69U C85U A106G C123U A137G | ≤ -4.2
46 | U31C G143A | 0.14
47 | A30U C75G G84U C103G G124C | ≤ -4.2
48 | U31C G34A C69G C85U U134C | -1.39

Row | Variant | polymerase ribozyme fitness (log ratio)
49 | A30G A66G C108G | ≤ -4.2
50 | U31A G67U G83A C85A U104G C105U G136A | ≤ -4.2
51 | A30G C38A C57A G58C U78G A97G U101C U102G | ≤ -4.2
52 | C32G U53C C76A | -4.09
53 | U31G G94U A119U | -0.547
54 | U31C C85G A98G | -1.26
55 | G34A C36G C69G C76A C95G G112A | ≤ -4.2
56 | U33G C54U C96G A147U | -3.24
57 | U31C C51A C69U G81A A91U G124A U144G | ≤ -4.2
58 | A30G G86A | -3.45
59 | C32G C36U C69U | ≤ -4.2
60 | A30U C54A U55G G86C C105A A119G G136U A142U | ≤ -4.2
61 | A30U G50C | ≤ -4.2
62 | U33G G94A C123G G136A | ≤ -4.2
63 | G34U U56G G58A C69G G94C A97G U134C | ≤ -4.2
64 | U31C A98U U134A | -1.41
65 | C32U A52G U55G G94C | -3.43
66 | C32G C93G | ≤ -4.2
67 | A30U G42U A119G A138G | ≤ -4.2
68 | C32G G58A G84A A107G G124C U130G | ≤ -4.2
69 | U33A C69G C87G | ≤ -4.2
70 | U33A C43U A60U C93A C96U U151C G152A | ≤ -4.2
71 | U33A G58C G92A G136U | ≤ -4.2
72 | U33A C75G U78A U101A G152U | -4.02

Row | Variant | polymerase ribozyme fitness (log ratio)
73 | U33A U45A G68U C87A U127C A137U | ≤ -4.2
74 | A30U G92U | -3.52
75 | G34U A60C G62A G70A G83C C95G U104C | ≤ -4.2
76 | C32U G34C C51U U130G U145A | ≤ -4.2
77 | U31A G58A U61A G84U A89C | -3.15
78 | C32G G59C U61A U82A G84U U134G G140C | ≤ -4.2
79 | C32A C36G A47G C72G A89G A91G | ≤ -4.2
80 | U31C A52C U56A U82C A107U | ≤ -4.2
81 | C32G C57U G80C G86C G152U | ≤ -4.2
82 | C32G U53A C79U G140U | -4.06
83 | U31A A49C C93U C118A A121U | ≤ -4.2
84 | U31C U45A A97U G117A | -4.09
85 | U31C C95A C96A U134C G143A U145G | -3.45
86 | C32G A41C C75U | ≤ -4.2
87 | U31C A97G U135C U146C | -1.76
88 | G34U A106G | -0.622
89 | C32G C76G G84C C118U C132G G133C | ≤ -4.2
90 | A30U C87U | -3.22
91 | C32A C87A | ≤ -4.2
92 | C35A A49G C87A C103A | ≤ -4.2
93 | C35A A60G C87U C96A G136A U146A | -4.03
94 | U31G A39C G50A G92U G117A G140U U145A A147G | ≤ -4.2
95 | U33G C43U A49C U77G A91U U101A C105G | ≤ -4.2
96 | A30G U44A A49U C87U G88A G92A A115U | ≤ -4.2

Row | Variant | polymerase ribozyme fitness (log ratio)
97 | G34U G68U C95G G133A | ≤ -4.2
98 | C32U G46U C103G U104G A107C G140C | ≤ -4.2
99 | A30U U53A | -3.18
100 | U33A C38G A52U C87G G136A | ≤ -4.2
101 | C32U A52C U55G C57A | -3.11
102 | C32A U77G G88A G126C G143U | ≤ -4.2
103 | U31G C32U C72A C123G G152A | ≤ -4.2
104 | G34A A120C | 0.113
105 | G34U G42A U82C U135C | ≤ -4.2
106 | A30G A138G | ≤ -4.2
107 | U31G C79U U90G A106G C108A A137C | ≤ -4.2
108 | U33G G50U C51G A52C C76A G92A C93A A98U | ≤ -4.2
109 | A30G G42A C96G G100A U139C U148C | ≤ -4.2
110 | G34A U78G G86U A106G A115G A120G | ≤ -4.2
111 | U31G A52C A64U C75G U90C C99U U134G | ≤ -4.2
112 | U33C A37G C63A C87G U111G U151A | ≤ -4.2
113 | C32G A39G G58U G143C | -4.1
114 | G34C G74A U109A C123U C149U | ≤ -4.2
115 | G34C G88U U144A | ≤ -4.2
116 | U31C C35U A41G C54U G86C | -2.75
117 | G34U G94C | -3.96
118 | A30U G94C A121G | -3.43
119 | U31C C76U C96U G136C U144C U148C | -3.9
120 | A30U G94C A150U | -3.55

Row | Variant | polymerase ribozyme fitness (log ratio)
121 | C32U U82C | -1.74
122 | U33A A52G A60U G84A C95G U109G A115U G133U G140C U146G | ≤ -4.2
123 | C32U C57U A121U C125U | -1.52
124 | A30U C35U A52C C96U A107G C108G C114A | ≤ -4.2
125 | C35A A91G C105U | -4.17
126 | U31A C38U C95U C96A | -1.16
127 | U33A U145C | -4
128 | G34A U55A | -2.46
129 | U31A C93G C95U C96A A113G | ≤ -4.2
130 | G34A C93A | -3.6
131 | U31G A89G C95U | -1.41
132 | U33C | -1.48
133 | U33A | -3.29
134 | U33G | -2.4
135 | U31A A97U | -0.316
136 | A30U A52C U82A U101A G128A G136U G141C | ≤ -4.2
137 | C32A A40U G62U C85G U146A | ≤ -4.2
138 | U33C C85U A119G | -3.71
139 | C32G U33A C43G G81U G84A A142G | ≤ -4.2
140 | G34A C85A A91C C103G | ≤ -4.2
141 | U31G U53A A91G A122G | -3.62
142 | A30U G74A C93G C103A A106G A113U | ≤ -4.2
143 | U33C C36U C54A C72U G84U C85A U148G | ≤ -4.2
144 | C32U U56A G58A G68A C76A C93A | ≤ -4.2

Row | Variant | polymerase ribozyme fitness (log ratio)
145 | C32G G58C G94U | -3.86
146 | U31C A49C G94U A121U | ≤ -4.2
147 | U31C U55A G86C | -2.47
148 | U31G G71U | ≤ -4.2
149 | C32A C85G | ≤ -4.2
150 | C32U U44A G50U U78C G83U A120G | ≤ -4.2
151 | U31A U134A | -1.82
152 | U31C G34A U78C G83C U145G | ≤ -4.2
153 | G34C C51A G58A G59C C96A A107U | ≤ -4.2
154 | U33A C43A C76U G92A G117U | -3.86
155 | U31C C69G C96U G117U C118G | -1.49
156 | G34U G50U A91C | -4.01
157 | U31C G83C U111C G152A | -3.66
158 | U31C C116A | 1.96
159 | C32U G74A C93U | -0.21
160 | U31G G50U U56G | -1.97
161 | G34A A66U C75U A137G | ≤ -4.2
162 | C32U U45A C54A G84A C85A G92A C93A | ≤ -4.2
163 | C32U U56A A91U A113U C118A G143C C149U | ≤ -4.2
164 | A30G A39U A52G U55G | -4.08
165 | C32G G59C C96A U144A | ≤ -4.2
166 | U31G G59U A138U | ≤ -4.2
167 | A30G C75G C93U A121G | ≤ -4.2

Reference: the RNAGym collection of RNA variant scans (doi:10.1073/pnas.2313332121)
